# Assays:
# Test in all cases: SPR
# Conditions in all cases: biotin (Biotin DecaLabel); SPR: PBS + 0.05% Tween 20, 25 C, 10 ul/min, SA chip (BIAcore 3000); ELISA: DNA coated at 10 ug/ml in Reacti-bind DNA coating solution, anti-GST detection …
# [1] = tested on: APL_1406, GST removed (Actinobacillus pleuropneumoniae serovar 15 HS143?)
# [2] = tested on: Aa1426, GST removed (Aggregatibacter (Actinobacillus) actinomycetemcomitans HK1651 (JP2 clone)?)
# [3] = tested on: ComE1 (PM1665), GST removed (Pasteurella multocida NCTC 10322/ATCC 43137?)
# [4] = tested on: Hi1008, GST removed (Haemophilus influenzae NCTC 8470/ATCC 9332 Pittman type D?)
# [5] = tested on: Ms0826, GST removed (M. succiniproducens)
substance,measurement,setting,value
pUC19 (biotinylated),Kd,[1],4 µM
same,Kd,[2],16 µM
same,Kd,[3],7.3 µM
same,Kd,[4],5 µM
same,Kd,[5],46 µM
